Measured values from paper PMC10279920, “Single-molecule visualization of Pif1 helicase translocation on single-stranded DNA” (The Journal of Biological Chemistry, 2023).
Where a chain is given by its changes, count along the chain named.

How the values were obtained:
Test in all cases: EMSA; no ATP, 5 mM Mg2+; 35 mM Tris-HCl pH 7.5, 1 mM DTT, 5 mM MgCl2, 60 mM KCl, 0.1 mg/ml BSA, no ATP, 30 min at 30 C; 5 nM ssDNA
Details in all cases: protein: recombinant; tags: N-terminal superfolder GFP; Ni-NTA purified; label: 5' Alexa647
GFP-Pif1 G291P = molecular target: T1, GFP-Pif1 G291P (Saccharomyces cerevisiae, UniProt P07271 40-859, G291P)
T1 sequence: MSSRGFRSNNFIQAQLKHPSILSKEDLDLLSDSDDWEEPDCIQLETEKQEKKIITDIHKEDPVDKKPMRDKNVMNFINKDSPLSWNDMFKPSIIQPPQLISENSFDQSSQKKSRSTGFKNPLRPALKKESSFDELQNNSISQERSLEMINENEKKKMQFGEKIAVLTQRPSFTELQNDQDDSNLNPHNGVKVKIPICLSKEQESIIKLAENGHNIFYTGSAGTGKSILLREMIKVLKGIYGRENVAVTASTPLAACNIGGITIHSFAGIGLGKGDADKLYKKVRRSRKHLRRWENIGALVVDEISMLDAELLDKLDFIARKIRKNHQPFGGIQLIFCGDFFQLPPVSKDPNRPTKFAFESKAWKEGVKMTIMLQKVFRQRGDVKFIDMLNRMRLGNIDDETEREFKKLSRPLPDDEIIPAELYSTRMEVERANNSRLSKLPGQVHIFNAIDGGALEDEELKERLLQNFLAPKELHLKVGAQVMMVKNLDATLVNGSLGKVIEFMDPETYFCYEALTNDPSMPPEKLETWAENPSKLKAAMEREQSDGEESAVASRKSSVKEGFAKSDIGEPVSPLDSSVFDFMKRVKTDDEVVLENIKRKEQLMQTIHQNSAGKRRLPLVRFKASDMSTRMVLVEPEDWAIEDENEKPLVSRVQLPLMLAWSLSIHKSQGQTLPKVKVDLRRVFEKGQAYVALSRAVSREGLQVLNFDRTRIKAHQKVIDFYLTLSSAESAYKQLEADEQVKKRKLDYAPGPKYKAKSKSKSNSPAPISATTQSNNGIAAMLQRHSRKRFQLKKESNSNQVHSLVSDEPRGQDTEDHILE

GFP-Pif1 K387A = molecular target: T2, GFP-Pif1 K387A (Saccharomyces cerevisiae, UniProt P07271 40-859, K387A)
T2 sequence: T1 sequence with P252G, K348A

GFP-Pif1 E724A = molecular target: T3, GFP-Pif1 E724A (Saccharomyces cerevisiae, UniProt P07271 40-859, E724A)
T3 sequence: T1 sequence with P252G, E685A

**Q.** What does the source list for GCTAGCAGTAGCCAGCATCGAACGTACGATCGGTAACGTA (ssDNA) [40-nt ssDNA]?
**A.** Kd (GFP-Pif1 G291P): 61.4 ± 15.8 nM; Kd (GFP-Pif1 K387A): 29 nM; Kd (GFP-Pif1 E724A): 19 nM
